According to the nanobody polyreactivity screen of Harvey et al. (2022):

Assay: yeast display, Sf9 membrane polyspecificity reagent, FACS + sequencing; frameworks hold sequencing errors
Method in brief: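 Galactose induction of a Saccharomyces cerevisiae BJ5465 synthetic nanobody display library ran 36–48 hours. The cells were then stained for 1 hour at 4 °C with 10% biotinylated, detergent-solubilized Sf9 membrane reagent, pulled down on streptavidin microbeads and FACS-sorted into low and high (top ~1%) gates on expression and reagent-binding fluorescence. Labels for polyreactivity follow the gate of origin.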

Sequence	polyreactivity (PSR sort gate)
QVQLVESGGGLVQAGGSLRLSCAASGRTFYPYAMGWYRQAPGKERELVAAISSSGGSTYYADSVKGRFTISRDNAKNTVYLQMNSLKPEDTAVYYCAAAVYLQYLDDPTYGYWGQGTQVTVSS	high polyreactivity
QVQLVESGGGLVQAGGSLRLSCDASGSTFIYYTMGWYRQAPGKERELVAAINGGGGSTYYADSVKGRFTISRDNAKNTVYLQMNSLKPEDTAVYYCATDPWHRAWGYGWGYNYWGQGTQVTVSS	low polyreactivity
QVQLVESGGGLVQAGGSLRLSCAASGRTFRKYTMGWYRQAPGKEREFVAAITYSGGSTYYADSVKGRFTISRDNAKNTGYLQMNSLKPEDTAVSYCFTRGGYYLYYSYYYWGQGTQVTVSS	high polyreactivity
QVQLVESGGGLVQAGGSLRLSCAASGITLFYYAMGWYRQAPGKERELVAVISASGGSTYYADSVKGRFTISRDNAKNTVYIQMNSLKPEDTAVYYCAAVAYWRSSSWYYYWGQGTQVTVSS	high polyreactivity
QVQLVESGGGLVQAGGSLRLSCAASGFTFTEYTMGRYRQAPGKERELVATISWSGGSTYYADSVKGRFTISRDNAKNTVYLQMNSLKPEDTAVYYCAKDQWPWVRDSLYTLRYDYWGQGTQVTVSS	low polyreactivity
QVQLVESGGGLVQAGGSLRLSCAASGRTLVVYAMGWYRQAPGKERELVADINWSGGRTYYADSVKGRFTISRDNAKNTVYLQMNSLKPEDTAVYYWAADLSWRQYYREYDYWGQGTQVSVSS	high polyreactivity
QVQLVESGGGLVQAGGSLRLSCAASGLNFYRNAMGWSRQAPGKERELVAAISASGGRTYYADSVKGRFTISRDNAKNTVYLPMNSLKPEDTAVYYCAAKSLWLSMDYWGQGTQVTVSS	high polyreactivity
QVQLVESGGGLVQAGGSLRLSCAASGSTIRNYAMGWYRQAPGKERELVAAISSGGRTYYADSVKGRFTISRDNAKNTVYLQMNSLKPEDTAVYYCKGRSYSRMYYWGQGTQVTVSS	high polyreactivity
QVQLVESGGGLVQAGCSLRGSCAAYRSTFIRYAMGWSRPAPGKERELVAAITWRGGSTYYADSVKGRFTISRDNEKNTVYLQMKSLKPDDSAVSFCAARDRDTRNYYWVQGTQVTVSS	high polyreactivity
QVQLVESGGGLVQAGGSLRLSCAASGIIFYYNAMGWYREAPGKEREFVASISSRGGSTYYADSVKGRFTISRDNSKNTVYLQMNSVKPEDTAVYYCAAAFDWRRQRYNYWGQGTQVTVTS	high polyreactivity
QVQLVESGGGLVQAGGSLRLSCAASGIIFGGNVMGWYRQAPGKERELVAAITWSGGTTYYADSVKGRFTISRDNAKNTVFLQMNSLKPEDTAVYYCAADRVYLDYVAGTYDYWGQGTQVTVSS	low polyreactivity
QVQLVESGGGLVQAGGSLRLSCAASGSIFEPYVMGWYRQAPGKERELVAVITSGSGRTYYADSVKGRFTISRDNAKNTVYLQMNSLKPEDTAVYYCNKAYLGYRYDLYDYWGQGTQVTVSS	low polyreactivity
QVQLVESGGGLVQAGGSLRLSCAASGGTFGSYAMGWYRQAPGKERELVAAIRSGDRTYYADSVKGRFTISRDNAKNTVYLQMNSLKPEDTAVYYCNADGYARFRTYYSRDTREYDYWGQGTQVTVSS	low polyreactivity
QVQIVESGGGLVQAVGSLRLSCAASGFIFMANAMGWYRQAPGKERELVAAITTGGRTNYADSVKGRFTISRDNAKNTVYLQMNSLKPEDTAVYYCAARYINGWVRSFYYWGQGTQVNVSS	high polyreactivity
QVQLVESGGGLVQAGGSLRLSCAASGSIFVYNAMGWYRQAPGKERELVAAISQRGGSTYYADSVKGRFTISRDYSKNTVYLQMNSLKPEDTAVYYCAAGPGDSGDDYWGQGTQVTVSS	low polyreactivity
QVQLVESGGGLVQAGGSLRLSCAASGRISYNNAMGWYRQAPGKERELVAAITKNGGRTYYADSVKGRFTISRDNAKNTVYLQMNSLKPEDTAVYYCAVRSYYYGYDYWGQGTQVTVSS	high polyreactivity
QVQLVESGGGLVQAGGSLRLSCAASGFIFGNYDMEWYRPAPGKERELVAAITNGGGNTYYADSVKGRITISRDNAKNTVYLQMNSLKPEDTAVSYCHPLRYYYWGQGTQVTVSS	high polyreactivity
QVQLVESGGGLVQAGGSLRLSCAASGSILYYNAMGWYRQAPGKERELVAAITSGGSTYADSVKGRFTISRDNAKNTFYLQMNCLKPEDTAVYYCAADLYWYLSDYGTTLEHDYWGQGTQVTVSS	low polyreactivity
QVQLVESGGGLVQAGGSLRLSCAASGFTFDYYDMGWYRQAPGKERELVAGITYSGGRTRYADSVKGRFTISRDNAKNTVYLQMNSLKPEDTAVYYCAARPGYPYRMNYWGQGTQVTVSS	low polyreactivity
QVQLVESGGGLVQAGGSLRLSCAASGLTFVWYGMGRYRQAPGKERELVAAITRGGSTYYADSVKGRFTISRDNAKNTVYLQMNSLKPEDTAVYYCAARRWERRVRPGYYPYDYWGQGTQVTVSS	high polyreactivity
QVQLVDSCGGLVQAGGSLRLSCAASGSISYYYAMGWYRQAPGKERELVAAITRTGTTNYADSVKWRFTISRDNAKNTVFLQMNSLKPEDTAVYYCAKRSTGRLQSYNYWGQGTQVTVSS	low polyreactivity
QVQLVESGGGLVQAGGSLRLSCAASGNTFGLYAMGWYIQAPGKERELVAAIRRGGRTYADSVKGRFTISRDNAKNTVYGQMNSLKPEDTAVYYCAAYYVFLDNDYWGQGSQVTVSS	high polyreactivity

Sequence	polyreactivity (PSR sort gate)
QVQLVESGGGLVQAGGSLRLSCAASGSILWHNAMGCYRQAPGKEREFVAAISARGTRTYYADSVKGRFTISRDNAKITVYLQMNSLKPEDTAVDYCAARYWDDRARAEDYWGQGTQVTVSS	high polyreactivity
QVQLVESGGGLVQAGGSLRLSCAASGSIFDSYAMGWYRPEPGKERELVAAISSGGSTNYADSVKGRFTISRDNEKNTVYLQMNSLKPEDTAVYYCAADGSLDAYNYWGQGTQVTVSS	low polyreactivity
QVQLVESGGGLVQAGGRLRLSCAASGRISYYYTMGWYRQAPGKERQLVAAISWSGGTTYYADSVKGRFTISRDNAKNTVYLQMNSLKPEDTAVYYCAAREYYTDVHGTRRYDYWGQGTQVTVSS	low polyreactivity
QVQLVESGGGLVQAGGRHRLTCAASGRILGYYAMGWYRQAPGKQRELVAAITRGGTTNYADSVKGRFTISRDNAMNTVYLQKNSQKPEDSAGYYCAADLARYGKRYDFWGQGTQVTLSS	low polyreactivity
QVQLGESGGGLVQAGGSLRLSCAASGITFTHYVMGLYRQAPGKERELVAAISTSGGRTYYADSVKGRFTISRDHAKNSVYLQMNSLKPEDTAVYYCAAVSRAPGLRYDYWGQGTQVTVSS	high polyreactivity
QVQLVESGGGLVQAGGSLRLTCAASVSIFPHYTMGWYRPAPGKERELVDAISNYGSSTYYADSVKGRFTISRDNAKNTVYLQMNSLKPEDSEVYYCNADDYGYSPGVNYWGQGTQVTVSS	low polyreactivity
QDQLVESGGGLVQAGGSLRLICAASGSIFSKKAMGLYRQAPGKERELVAAISASGASTYYADSVKGRFTISRDNEKNTVYLQMNSLKPEDTSVYYCNADVSGVSSYGLSYEFYYWGQGTQVTVSS	low polyreactivity
QVQLVESGGGLVQAGGSLRLSCAASGSIFFRNAMGWYRQAPGKERELVAAITWNGGSTYYADSVKGRFTISRDNAKNTVYLQMNSLKPEDTAVYYCNKYYYYRDSGYWGQGTQVTVSS	high polyreactivity
QVQLVESGGGLVQAGGSLRLTCAASGSIFTGYAMRCYRQAPGTERELVAAIRTRGGSPYYADSVKGRFTISRDNAKNTVYLQMNSLKPEDTALYYCAKRYYGWYGNFDYWGQGTQVTVSS	high polyreactivity
QVQLVESGGGLVQAGGSLRLSCAASGSIFTPYAMGWYRQAPAKERELVAANTSSGGSTNYPDSVKGRFTISRDKAKSTVYLQMNSLKPEDTAVYYCAADQDLGYPLFDYWGQRTQVTVSS	low polyreactivity
QVQLVESGGGLVQAGGSLRLSCAASGRTFADNAMGWYRQAPGKERELVASISSGTSTNYADSVKGRFTISRDNAKNTVYLQMNSLKPEDTAVYYCNAYGPIWYTAVLGVGRYYGWTDYWGQGTQVTVSS	low polyreactivity
QVQLVESGGGLVQAGGSLRLSCAASGRILHRYVMGWYRQAPGKERELVAAISSGGSTTYADSVKGRFTISRDNAKYTVYLQMNSLKPEDTAVYYCAADARYSRRYYYWGQGTQVTVSS	low polyreactivity
QVQLVESGGGLVQAGGSLRLTCAASGRTFGLNTMGWYRQAPGKERELVAAISRRGGSTYYADSVKGRFTISRDNAKNTVYLQMNSLKPEDTAVYYCARTSYNRYDYWGQGTQVTVSS	high polyreactivity
QVQLVESGGGLVQAGGSLRLSCAASGSTFWYYAMGWYRQAPGKERELVAAINGSGSRTYYADSVKGRFTISRDNAKNTVYLQMNSLKPEDTAVYYCAAGSLGRYYFKLDYWGQGTQVTVSS	high polyreactivity
QVQLVESGGGLVQAGGSLRLSCAASGRIFWWYAMGWYRQAPGKERELVASISSRGTSTYYADSVKGRFTISRDNAKHTVYLQMNSLKPEDTAFYYCAARRPGRTSQDRYKYDYWGQGTQVTVSS	high polyreactivity
QVQLEESGGGLVQAGGSLRLSCAGSGRIFIHYTMGWYRQAPGKERELVAAISTSGGSTYYADSVKGRFTISRDTAKNTVYLQMKSLKPEDTAGYYCAPVYRGYSGEGYYWGQGSQVTVSS	high polyreactivity
QVQLVESGGGLVQAGGTLRLSCAASGRTFNTYAMGWYRQAPGKERELVAAISSGGRTYYADSVKGRFTISRDNAMLTVYLQMNSLKPEDTAVYYCAAKRFQYRTLYEFWGLGTQVTVSS	high polyreactivity
QVQLVESGGGLVQVGCSLRLICAASGRTFWWYAMGGYRQAPGKERELVAAISRGSTNYADSVKGRFTISRDNAKNTVYLQMNSLKPEDTAVYYCNAVSLYQSHDYDYWGQGSQVTVSS	low polyreactivity
QVQLVESGGGLVQAGGSLRLSCAASGSTLHYYAMGWYRQAPGKERELVAAISATGGSTYYADSVKGRFTISRDNAKNTVYLQMNSLKPEDTAVYYCARTYRSHWVYTRLDYWGQGTQVTVSS	high polyreactivity
QVQLVESGGGLVQAGGSLRLSCAASGRTFGWYAMGWYRQAPGKERELVAAISTRGTRTYYADSVKGRFTISRDNAKNTVYLQMNSLKPEDTAVYYCNAKRRAVTTAHGIPEEDYWGQGTQVTVSS	high polyreactivity
QVQLVESGGGLVQAGGSLRLSCAASGRTLRSNAMGWYRQAPGKERELVAAISSNGGSTYYADSVKGRFTISRDNAKNTVYLQMNSLKPEDTAVYYCAALSYYYSDRMDYWGQGTQVTVSS	low polyreactivity
